This series concerns the molecule itself.

The values below come from article PMC7616709 (Molecular cell, 2024).

B1: WDR26 (subunit of the recombinant WDR26-CTLH E3) (natural protein, human, UniProt Q9H7D7 1-661, looked up)
chain: MQANGAGGGGGGGGGGGGGGGGGGGQGQTPELACLSAQNGESSPSSSSSAGDLAHANGLLPSAPSAASNNSNSLNVNNGVPGGAAAASSATVAAASATTAASSSLATPELGSSLKKKKRLSQSDEDVIRLIGQHLNGLGLNQTVDLLMQESGCRLEHPSATKFRNHVMEGDWDKAENDLNELKPLVHSPHAIVVRGALEISQTLLGIIVRMKFLLLQQKYLEYLEDGKVLEALQVLRCELTPLKYNTERIHVLSGYLMCSHAEDLRAKAEWEGKGTASRSKLLDKLQTYLPPSVMLPPRRLQTLLRQAVELQRDRCLYHNTKLDNNLDSVSLLIDHVCSRRQFPCYTQQILTEHCNEVWFCKFSNDGTKLATGSKDTTVIIWQVDPDTHLLKLLKTLEGHAYGVSYIAWSPDDNYLVACGPDDCSELWLWNVQTGELRTKMSQSHEDSLTSVAWNPDGKRFVTGGQRGQFYQCDLDGNLLDSWEGVRVQCLWCLSDGKTVLASDTHQRIRGYNFEDLTDRNIVQEDHPIMSFTISKNGRLALLNVATQGVHLWDLQDRVLVRKYQGVTQGFYTIHSCFGGHNEDFIASGSEDHKVYIWHKRSELPIAELTGHTRTVNCVSWNPQIPSMMASASDDGTVRIWGPAPFIDHQNIEEECSSMDS
notes: WDR26, human, from human cDNA library (pFLN WDR26); The models 8QE8 and 8QBN exclude the CTLH-CRA^N domain of WDR26; also called WDR26 dimer
By stoichiometry N is commonly meant a count of units in the complex or per binding partner. For B1, the “stoichiometry N” value was 2.
